Results published in paper PMC9482650, “Quantitative fragmentomics allow affinity mapping of interactomes” (Nature Communications, 2022).

T1: PCLO, Q9Y6V0
T1 sequence (Q9Y6V0 4491-4600, limits assumed, looked up): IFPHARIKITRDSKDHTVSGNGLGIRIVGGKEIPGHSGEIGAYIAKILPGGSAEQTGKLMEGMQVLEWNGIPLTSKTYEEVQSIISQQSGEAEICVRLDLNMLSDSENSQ

T2: MPP7, Q5T2T1
T2 sequence (Q5T2T1 134-230, limits assumed, looked up): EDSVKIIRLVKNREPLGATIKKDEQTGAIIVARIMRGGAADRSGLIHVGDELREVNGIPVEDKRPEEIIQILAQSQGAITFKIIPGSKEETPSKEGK

T3: PDZRN3_1, Q9UPQ7
T3 sequence (Q9UPQ7 244-349, limits assumed, looked up): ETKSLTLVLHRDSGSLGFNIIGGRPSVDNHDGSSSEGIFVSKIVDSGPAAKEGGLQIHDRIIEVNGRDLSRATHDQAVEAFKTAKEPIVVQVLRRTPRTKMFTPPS

T4: LIN7A, O14910
T4 sequence (O14910 103-200, limits assumed, looked up): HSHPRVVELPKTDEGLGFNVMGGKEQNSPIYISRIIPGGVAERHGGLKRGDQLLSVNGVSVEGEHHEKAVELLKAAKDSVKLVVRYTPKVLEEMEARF

T5: PTPN13_1, Q12923
T5 sequence (Q12923 1088-1188, limits assumed, looked up): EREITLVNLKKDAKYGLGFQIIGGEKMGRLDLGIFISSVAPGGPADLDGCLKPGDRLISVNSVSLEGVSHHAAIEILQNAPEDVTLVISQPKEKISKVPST

T6: GRIP1_5, Q9Y3R0
T6 sequence (Q9Y3R0 568-668, limits assumed, looked up): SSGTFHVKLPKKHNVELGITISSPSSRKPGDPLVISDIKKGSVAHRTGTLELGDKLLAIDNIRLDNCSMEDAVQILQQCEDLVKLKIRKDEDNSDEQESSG

T7: GRIP1_7, Q9Y3R0
T7 sequence (Q9Y3R0 999-1096, limits assumed, looked up): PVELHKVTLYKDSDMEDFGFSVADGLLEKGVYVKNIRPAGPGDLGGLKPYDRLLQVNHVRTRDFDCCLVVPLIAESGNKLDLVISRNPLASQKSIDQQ

T8: MPP6, Q9NZW5
T8 sequence (Q9NZW5 125-219, limits assumed, looked up): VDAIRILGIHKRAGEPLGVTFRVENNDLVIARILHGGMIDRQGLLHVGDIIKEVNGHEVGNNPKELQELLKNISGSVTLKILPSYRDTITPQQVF

T9: SYNJ2BP, P57105
T9 sequence (P57105 8-110, limits assumed, looked up): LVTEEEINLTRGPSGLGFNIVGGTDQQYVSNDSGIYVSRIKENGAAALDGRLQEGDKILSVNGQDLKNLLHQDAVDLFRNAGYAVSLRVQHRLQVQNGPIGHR

T10: ARHGEF11, O15085
T10 sequence (O15085 42-136, limits assumed, looked up): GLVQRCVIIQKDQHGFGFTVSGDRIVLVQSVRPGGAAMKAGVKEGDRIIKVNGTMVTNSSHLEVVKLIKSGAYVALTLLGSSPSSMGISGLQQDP

B1: GUCY1A2, P33402 (peptide)
chain: GTMFLRETSL
B2: SEMA4F, O95754 (peptide)
chain: PLATCDETSI

target: MAGI2_5, Q86UL8; experiment: holdup assay; design: key: below the threshold = too weak to quantify, mostly under pKd 3.1 to 4; settings: plain residues with an end cap or a label only (N-terminal biotin on a linker: ado-ado)
Sequence (Q86UL8 915-1017): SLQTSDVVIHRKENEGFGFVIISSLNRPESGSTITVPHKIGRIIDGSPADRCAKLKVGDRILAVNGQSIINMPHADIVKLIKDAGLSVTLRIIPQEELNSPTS

| pKd | Binder |
| --- | --- |
| 3.98 | B1 |
| below the threshold | B2 |

target: T1, PCLO, Q9Y6V0; experiment: holdup assay; design: key: below the threshold = too weak to quantify, mostly under pKd 3.1 to 4; settings: plain residues with an end cap or a label only (N-terminal biotin on a linker: ado-ado)

| pKd | Binder |
| --- | --- |
| below the threshold | B1 |
| below the threshold | B2 |

target: GRID2IP_1, A4D2P6; experiment: holdup assay; design: key: below the threshold = too weak to quantify, mostly under pKd 3.1 to 4; settings: plain residues with an end cap or a label only (N-terminal biotin on a linker: ado-ado)
Sequence (A4D2P6 1-87): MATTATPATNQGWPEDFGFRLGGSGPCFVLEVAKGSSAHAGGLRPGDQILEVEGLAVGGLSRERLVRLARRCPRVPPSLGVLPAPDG

| pKd | Binder |
| --- | --- |
| below the threshold | B1 |
| below the threshold | B2 |

target: MAGI1_1, Q96QZ7; experiment: holdup assay; design: key: below the threshold = too weak to quantify, mostly under pKd 3.1 to 4; settings: plain residues with an end cap or a label only (N-terminal biotin on a linker: ado-ado)
Sequence (Q96QZ7 1-106): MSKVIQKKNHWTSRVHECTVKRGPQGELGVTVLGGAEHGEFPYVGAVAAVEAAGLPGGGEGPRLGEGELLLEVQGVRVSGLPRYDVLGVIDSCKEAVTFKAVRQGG

| pKd | Binder |
| --- | --- |
| below the threshold | B1 |
| below the threshold | B2 |

target: GIPC2, Q8TF65; experiment: holdup assay; design: key: below the threshold = too weak to quantify, mostly under pKd 3.1 to 4; settings: plain residues with an end cap or a label only (N-terminal biotin on a linker: ado-ado)
Sequence (Q8TF65 112-203): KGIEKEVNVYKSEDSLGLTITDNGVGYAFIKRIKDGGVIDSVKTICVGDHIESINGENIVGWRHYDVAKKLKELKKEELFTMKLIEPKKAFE

| pKd | Binder |
| --- | --- |
| 4 | B1 |
| 3.52 | B2 |

target: Inadl_4, Q8NI35; experiment: holdup assay; design: key: below the threshold = too weak to quantify, mostly under pKd 3.1 to 4; settings: plain residues with an end cap or a label only (N-terminal biotin on a linker: ado-ado)
Sequence (Q8NI35 547-651): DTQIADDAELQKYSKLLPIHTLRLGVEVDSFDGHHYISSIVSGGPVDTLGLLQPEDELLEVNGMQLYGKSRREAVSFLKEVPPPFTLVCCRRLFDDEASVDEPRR

| pKd | Binder |
| --- | --- |
| below the threshold | B1 |
| below the threshold | B2 |

target: MAGI1_2, Q96QZ7; experiment: holdup assay; design: key: below the threshold = too weak to quantify, mostly under pKd 3.1 to 4; settings: plain residues with an end cap or a label only (N-terminal biotin on a linker: ado-ado)
Sequence (Q96QZ7 456-580): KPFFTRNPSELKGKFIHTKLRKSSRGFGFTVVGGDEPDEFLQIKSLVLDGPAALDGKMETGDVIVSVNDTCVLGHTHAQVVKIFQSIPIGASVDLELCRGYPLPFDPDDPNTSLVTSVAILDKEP

| pKd | Binder |
| --- | --- |
| 4.24 | B1 |
| below the threshold | B2 |

target: T2, MPP7, Q5T2T1; experiment: holdup assay; design: key: below the threshold = too weak to quantify, mostly under pKd 3.1 to 4; settings: plain residues with an end cap or a label only (N-terminal biotin on a linker: ado-ado)

| pKd | Binder |
| --- | --- |
| below the threshold | B1 |
| 3.54 | B2 |

target: T3, PDZRN3_1, Q9UPQ7; experiment: holdup assay; design: key: below the threshold = too weak to quantify, mostly under pKd 3.1 to 4; settings: plain residues with an end cap or a label only (N-terminal biotin on a linker: ado-ado)

| pKd | Binder |
| --- | --- |
| 6.34 | B1 |
| 4.03 | B2 |

target: T4, LIN7A, O14910; experiment: holdup assay; design: key: below the threshold = too weak to quantify, mostly under pKd 3.1 to 4; settings: plain residues with an end cap or a label only (N-terminal biotin on a linker: ado-ado)

| pKd | Binder |
| --- | --- |
| 4.35 | B1 |
| below the threshold | B2 |

target: T5, PTPN13_1, Q12923; experiment: holdup assay; design: key: below the threshold = too weak to quantify, mostly under pKd 3.1 to 4; settings: plain residues with an end cap or a label only (N-terminal biotin on a linker: ado-ado)

| pKd | Binder |
| --- | --- |
| below the threshold | B1 |
| below the threshold | B2 |

target: GRASP, Q7Z6J2; experiment: holdup assay; design: key: below the threshold = too weak to quantify, mostly under pKd 3.1 to 4; settings: plain residues with an end cap or a label only (N-terminal biotin on a linker: ado-ado)
Sequence (Q7Z6J2 96-193): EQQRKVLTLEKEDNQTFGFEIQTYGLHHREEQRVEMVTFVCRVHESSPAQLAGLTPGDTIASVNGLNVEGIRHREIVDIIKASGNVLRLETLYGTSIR

| pKd | Binder |
| --- | --- |
| 4.73 | B1 |
| below the threshold | B2 |

target: SCRIB_2, Q14160; experiment: holdup assay; design: key: below the threshold = too weak to quantify, mostly under pKd 3.1 to 4; settings: plain residues with an end cap or a label only (N-terminal biotin on a linker: ado-ado)
Sequence (Q14160 857-960): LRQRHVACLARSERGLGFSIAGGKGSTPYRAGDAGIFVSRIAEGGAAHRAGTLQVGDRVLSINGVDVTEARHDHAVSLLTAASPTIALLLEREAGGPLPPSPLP

| pKd | Binder |
| --- | --- |
| 5.15 | B1 |
| 4.39 | B2 |

target: GRIP2_3, Q9C0E4; experiment: holdup assay; design: key: below the threshold = too weak to quantify, mostly under pKd 3.1 to 4; settings: plain residues with an end cap or a label only (N-terminal biotin on a linker: ado-ado)
Sequence (Q9C0E4 238-339): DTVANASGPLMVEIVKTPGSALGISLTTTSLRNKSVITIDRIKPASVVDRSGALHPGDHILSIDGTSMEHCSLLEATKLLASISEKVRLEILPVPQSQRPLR

| pKd | Binder |
| --- | --- |
| below the threshold | B1 |
| below the threshold | B2 |

target: MAST2, Q6P0Q8; experiment: holdup assay; design: key: below the threshold = too weak to quantify, mostly under pKd 3.1 to 4; settings: plain residues with an end cap or a label only (N-terminal biotin on a linker: ado-ado)
Sequence (Q6P0Q8 1099-1202): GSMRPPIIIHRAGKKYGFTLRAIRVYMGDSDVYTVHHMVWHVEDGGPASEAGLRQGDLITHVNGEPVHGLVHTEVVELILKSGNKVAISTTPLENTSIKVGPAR

| pKd | Binder |
| --- | --- |
| 5.68 | B1 |
| 5.42 | B2 |

target: NHERF4_2, Q86UT5; experiment: holdup assay; design: key: below the threshold = too weak to quantify, mostly under pKd 3.1 to 4; settings: plain residues with an end cap or a label only (N-terminal biotin on a linker: ado-ado)
Sequence (Q86UT5 220-308): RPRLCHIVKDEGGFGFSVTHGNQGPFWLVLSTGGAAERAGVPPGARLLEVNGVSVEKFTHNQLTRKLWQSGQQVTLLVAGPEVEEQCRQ

| pKd | Binder |
| --- | --- |
| below the threshold | B1 |
| below the threshold | B2 |

target: T6, GRIP1_5, Q9Y3R0; experiment: holdup assay; design: key: below the threshold = too weak to quantify, mostly under pKd 3.1 to 4; settings: plain residues with an end cap or a label only (N-terminal biotin on a linker: ado-ado)

| pKd | Binder |
| --- | --- |
| below the threshold | B1 |
| below the threshold | B2 |

target: AHNAK1, Q09666; experiment: holdup assay; design: key: below the threshold = too weak to quantify, mostly under pKd 3.1 to 4; settings: plain residues with an end cap or a label only (N-terminal biotin on a linker: ado-ado)
Sequence (Q09666 4-100): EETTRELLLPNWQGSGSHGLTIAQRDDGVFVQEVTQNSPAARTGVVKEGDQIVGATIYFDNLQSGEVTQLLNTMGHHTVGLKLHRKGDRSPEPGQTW

| pKd | Binder |
| --- | --- |
| below the threshold | B1 |
| below the threshold | B2 |

target: HTRA1, Q92743; experiment: holdup assay; design: key: below the threshold = too weak to quantify, mostly under pKd 3.1 to 4; settings: plain residues with an end cap or a label only (N-terminal biotin on a linker: ado-ado)
Sequence (Q92743 360-477): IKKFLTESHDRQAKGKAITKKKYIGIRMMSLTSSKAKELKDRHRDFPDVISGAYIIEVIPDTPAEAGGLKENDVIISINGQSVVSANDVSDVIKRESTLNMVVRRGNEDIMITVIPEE

| pKd | Binder |
| --- | --- |
| 3.77 | B1 |
| 3.89 | B2 |

target: T7, GRIP1_7, Q9Y3R0; experiment: holdup assay; design: key: below the threshold = too weak to quantify, mostly under pKd 3.1 to 4; settings: plain residues with an end cap or a label only (N-terminal biotin on a linker: ado-ado)

| pKd | Binder |
| --- | --- |
| below the threshold | B1 |
| below the threshold | B2 |

target: MAGI2_3, Q86UL8; experiment: holdup assay; design: key: below the threshold = too weak to quantify, mostly under pKd 3.1 to 4; settings: plain residues with an end cap or a label only (N-terminal biotin on a linker: ado-ado)
Sequence (Q86UL8 600-682): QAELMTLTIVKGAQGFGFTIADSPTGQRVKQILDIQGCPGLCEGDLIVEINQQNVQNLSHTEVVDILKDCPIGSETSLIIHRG

| pKd | Binder |
| --- | --- |
| 3.71 | B1 |
| below the threshold | B2 |

target: T8, MPP6, Q9NZW5; experiment: holdup assay; design: key: below the threshold = too weak to quantify, mostly under pKd 3.1 to 4; settings: plain residues with an end cap or a label only (N-terminal biotin on a linker: ado-ado)

| pKd | Binder |
| --- | --- |
| below the threshold | B1 |
| below the threshold | B2 |

target: T9, SYNJ2BP, P57105; experiment: holdup assay; design: key: below the threshold = too weak to quantify, mostly under pKd 3.1 to 4; settings: plain residues with an end cap or a label only (N-terminal biotin on a linker: ado-ado)

| pKd | Binder |
| --- | --- |
| 5.41 | B1 |
| 4.62 | B2 |

target: T10, ARHGEF11, O15085; experiment: holdup assay; design: key: below the threshold = too weak to quantify, mostly under pKd 3.1 to 4; settings: plain residues with an end cap or a label only (N-terminal biotin on a linker: ado-ado)

| pKd | Binder |
| --- | --- |
| 4.52 | B1 |
| below the threshold | B2 |

target: DLG4_2, P78352; experiment: holdup assay; design: key: below the threshold = too weak to quantify, mostly under pKd 3.1 to 4; settings: plain residues with an end cap or a label only (N-terminal biotin on a linker: ado-ado)
Sequence (P78352 155-259): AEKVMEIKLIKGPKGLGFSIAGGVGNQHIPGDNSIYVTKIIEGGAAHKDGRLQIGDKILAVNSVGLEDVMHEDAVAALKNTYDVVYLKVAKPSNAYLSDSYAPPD

| pKd | Binder |
| --- | --- |
| 4.5 | B1 |
| 3.67 | B2 |

target: FRMPD2_1, Q68DX3; experiment: holdup assay; design: key: below the threshold = too weak to quantify, mostly under pKd 3.1 to 4; settings: plain residues with an end cap or a label only (N-terminal biotin on a linker: ado-ado)
Sequence (Q68DX3 770-861): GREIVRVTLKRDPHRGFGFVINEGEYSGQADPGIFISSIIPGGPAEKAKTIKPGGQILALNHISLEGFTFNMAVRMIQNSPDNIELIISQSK

| pKd | Binder |
| --- | --- |
| below the threshold | B1 |
| below the threshold | B2 |

target: GRIP2_6, Q9C0E4; experiment: holdup assay; design: key: below the threshold = too weak to quantify, mostly under pKd 3.1 to 4; settings: plain residues with an end cap or a label only (N-terminal biotin on a linker: ado-ado)
Sequence (Q9C0E4 648-740): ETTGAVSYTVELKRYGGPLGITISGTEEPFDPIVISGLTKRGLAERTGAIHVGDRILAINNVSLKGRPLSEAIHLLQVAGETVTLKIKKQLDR

| pKd | Binder |
| --- | --- |
| below the threshold | B1 |
| below the threshold | B2 |
